Measurements published in PMC2603141 (Virology, 2008).

Target: the molecule itself
Test: reducing and non-reducing SDS-PAGE

B1: PIV 5 HN stalk region, HN(stalk) (domain or fragment)
chain: SPSSGLGSITDLLNNILSVANQIIYNSAVALPLQLDTLESTLLTAIKSLQTSDKLEQNCSWSAAL
modifications: also: inter-chain disulfide, covalent dimer
  stoichiometry N: 2
